Patent US20200239543A1 (ALX ONCOLOGY, published 2020)
Each block holds one molecule with its values, some of them ahead of it.

What was measured:
[1] = target: T1, human Fcγ receptor RI (CD64) (human, UniProt P12314 16-288); test: SPR (ProteOn XPR36), biotinylated Fc construct on NLC chip, hFcγR as analyte, KD,app
T1 construct: bought recombinant protein; also called hFcγRI; hFcγR

[2] = target: T2, human Fcγ receptor RIIA (CD32a) (human, UniProt P12318 36-218); test: as above
T2 construct: bought recombinant protein; also called hFcγR
T2 sequence (looked up): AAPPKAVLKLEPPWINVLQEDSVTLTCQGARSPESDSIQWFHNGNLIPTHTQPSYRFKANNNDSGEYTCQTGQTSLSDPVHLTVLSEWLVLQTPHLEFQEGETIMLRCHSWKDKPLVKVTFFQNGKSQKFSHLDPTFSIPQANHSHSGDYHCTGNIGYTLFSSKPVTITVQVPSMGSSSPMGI

[3] = target: T3, human Fcγ receptor RIIB/C (CD32b/c) (human, UniProt P31994 46-217); test: as above
T3 construct: bought recombinant protein; also called CD32c; hFcγR
T3 sequence (looked up): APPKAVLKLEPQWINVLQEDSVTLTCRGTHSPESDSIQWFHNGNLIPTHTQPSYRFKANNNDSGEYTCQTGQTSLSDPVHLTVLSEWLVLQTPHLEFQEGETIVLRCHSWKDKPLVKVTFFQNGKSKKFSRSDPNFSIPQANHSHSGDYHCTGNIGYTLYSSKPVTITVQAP

[4] = target: T4, human Fcγ receptor RIIIA (CD16a) (human, UniProt P08637 17-208); test: as above
T4 construct: bought recombinant protein; also called hFcγR

[5] = target: T3, human Fcγ receptor RIIB/C (CD32b/c); test: SPR (ProteOn XPR36), biotinylated Fc construct on NLC chip, hFcγR as analyte
[6] = target: T4, human Fcγ receptor RIIIA (CD16a); test: as above
[7] = target: T1, human Fcγ receptor RI (CD64); test: as above
[8] = target: T2, human Fcγ receptor RIIA (CD32a); test: as above
human CD47 [9] = target: T5, human CD47 (human, UniProt Q08722 19-139); test: SPR as in Example 1
T5 construct: extracellular domain; also called CD47 ECD

mouse CD47 [10] = target: T6, mouse CD47 (mouse, UniProt Q61735 19-140, limits assumed); test: SPR, 25 C, 1:1 Langmuir fit
T6 construct: also called mouse CD47 protein
T6 sequence (looked up): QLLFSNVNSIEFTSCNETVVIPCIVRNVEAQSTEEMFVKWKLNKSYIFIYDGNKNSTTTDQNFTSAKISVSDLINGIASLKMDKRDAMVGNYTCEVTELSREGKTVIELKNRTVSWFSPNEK

human CD47 [11] = target: T5, human CD47; test: SPR, 25 C, 1:1 Langmuir fit
human CD47 [12] = target: T5, human CD47; test: SPR, 25 C, 1:1 Langmuir fit; remark: listed apart in the source
human CD47 [13] = target: T5, human CD47; test: SPR; protein made in mammalian cell
mouse CD47 [14] = target: T6, mouse CD47; test: SPR (Biacore T100 and ProteOn XPR36)
human CD47 [15] = target: T5, human CD47; test: SPR (Biacore T100 and ProteOn XPR36)
rat CD47 = target: T7, rat CD47 (rat, UniProt P97829 19-140, limits assumed); test: SPR (Biacore T100 and ProteOn XPR36)
T7 sequence (looked up): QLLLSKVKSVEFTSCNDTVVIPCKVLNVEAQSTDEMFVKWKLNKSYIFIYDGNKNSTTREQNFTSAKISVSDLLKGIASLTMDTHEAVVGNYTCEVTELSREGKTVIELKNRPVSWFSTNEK

T5 sequence (Q08722 19-139 limits assumed): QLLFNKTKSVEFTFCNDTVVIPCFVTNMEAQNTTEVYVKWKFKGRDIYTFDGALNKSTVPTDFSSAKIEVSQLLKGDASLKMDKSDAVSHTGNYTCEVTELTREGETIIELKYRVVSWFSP
T1 sequence (P12314 16-288 limits assumed): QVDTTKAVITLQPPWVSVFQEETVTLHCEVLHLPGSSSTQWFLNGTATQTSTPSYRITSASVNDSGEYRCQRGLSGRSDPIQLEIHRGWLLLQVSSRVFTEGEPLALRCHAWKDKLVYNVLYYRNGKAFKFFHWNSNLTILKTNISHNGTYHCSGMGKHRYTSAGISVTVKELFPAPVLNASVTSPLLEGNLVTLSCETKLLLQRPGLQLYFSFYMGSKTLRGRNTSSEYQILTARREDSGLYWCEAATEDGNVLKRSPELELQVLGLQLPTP
T4 sequence (P08637 17-208 limits assumed): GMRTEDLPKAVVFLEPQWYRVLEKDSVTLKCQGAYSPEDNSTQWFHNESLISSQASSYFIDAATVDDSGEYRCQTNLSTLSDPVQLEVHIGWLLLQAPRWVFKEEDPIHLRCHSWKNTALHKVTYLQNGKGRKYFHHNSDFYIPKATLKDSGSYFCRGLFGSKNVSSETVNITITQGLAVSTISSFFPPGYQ

Kd [1]: 60 nM
Kd [2]: 1200 nM
Kd [3]: 1100 nM
Kd [4]: 2400 nM
Molecule: Fc variant construct IgG4_S228P, L235E (Fc fusion)

Kd [1]: 1 nM
Kd [2]: 810 nM
Kd [3]: 850 nM
Molecule: Fc variant construct IgG4_S228P (Fc fusion)

Kd [1]: 2100 nM
Kd [2]: 1600 nM
Molecule: Fc variant construct IgG4_S228P, E233P, F234V, L235A, delG236 (Fc fusion)

Kd [1]: 700 nM
Kd [2]: 420 nM
binding result [5]: no binding (tested: 5000 nM)
binding result [6]: no binding (tested: 5000 nM)
B1: SIRP-α Fc construct with wildtype IgG2 Fc, SEQ ID NO: 126 (Fc fusion)
chain: EEELQIIQPDKSVLVAAGETATLRCTITSLFPVGPIQWFRGAGPGRVLIYNQRQGPFPRVTTVSDTTKRNNMDFSIRIGNITPADAGTYYCIKFRKGSPDDVEFKSGAGTELSVRAKPSERKCCVECPPCPAPPVAGPSVFLFPPKPKDTLMISRTPEVTCVVVDVSHEDPEVQFNWYVDGVEVHNAKTKPREEQFNSTFRVVSVLTVVHQDWLNGKEYKCKVSNKGLPAPIEKTISKTKGQPREPQVYTLPPSREEMTKNQVSLTCLVKGFYPSDIAVEWESNGQPENNYKTTPPMLDSDGSFFLYSKLTVDKSRWQQGNVFSCSVMHEALHNHYTQKSLSLSPGK

binding result [5]: no binding (tested: 5000 nM)
binding result [7]: no binding (tested: 5000 nM)
binding result [8]: no binding (tested: 5000 nM)
binding result [6]: no binding (tested: 5000 nM)
B2: SIRP-α Fc construct with Fc variant IgG2_N297A, SEQ ID NO: 128 (Fc fusion)
chain: EEELQIIQPDKSVLVAAGETATLRCTITSLFPVGPIQWFRGAGPGRVLIYNQRQGPFPRVTTVSDTTKRNNMDFSIRIGNITPADAGTYYCIKFRKGSPDDVEFKSGAGTELSVRAKPSERKCCVECPPCPAPPVAGPSVFLFPPKPKDTLMISRTPEVTCVVVDVSHEDPEVQFNWYVDGVEVHNAKTKPREEQFASTFRVVSVLTVVHQDWLNGKEYKCKVSNKGLPAPIEKTISKTKGQPREPQVYTLPPSREEMTKNQVSLTCLVKGFYPSDIAVEWESNGQPENNYKTTPPMLDSDGSFFLYSKLTVDKSRWQQGNVFSCSVMHEALHNHYTQKSLSLSPGK

binding result [5]: no binding (tested: 5000 nM)
binding result [7]: no binding (tested: 5000 nM)
binding result [8]: no binding (tested: 5000 nM)
binding result [6]: no binding (tested: 5000 nM)
Kd (human CD47 [9]): 0.0351 nM
Kd (mouse CD47 [10]): 33.2 nM
Kd (human CD47 [11]): 0.0104 nM
B3: SIRP-α D1 variant fused to Fc variant IgG1 L234A, L235A, G237A, N297A, SEQ ID NO: 96 (Fc fusion)
chain: EEELQIIQPDKSVLVAAGETATLRCTITSLFPVGPIQWFRGAGPGRVLIYNQRQGPFPRVTTVSDTTKRNNMDFSIRIGNITPADAGTYYCIKFRKGSPDDVEFKSGAGTELSVRAKPSDKTHTCPPCPAPEAAGAPSVFLFPPKPKDTLMISRTPEVTCVVVDVSHEDPEVKFNWYVDGVEVHNAKTKPREEQYASTYRVVSVLTVLHQDWLNGKEYKCKVSNKALPAPIEKTISKAKGQPREPQVYTLPPSREEMTKNQVSLTCLVKGFYPSDIAVEWESNGQPENNYKTTPPVLDSDGSFFLYSKLTVDKSRWQQGNVFSCSVMHEALHNHYTQKSLSLSPGK

Kd [1]: 8000 nM
Kd [2]: 2300 nM
binding result [5]: no binding (tested: 5000 nM)
binding result [6]: no binding (tested: 5000 nM)
B4: SIRP-α Fc construct with Fc variant IgG1_AAA (L234A, L235A, G237A), SEQ ID NO: 124 (Fc fusion)
chain: EEELQIIQPDKSVLVAAGETATLRCTITSLFPVGPIQWFRGAGPGRVLIYNQRQGPFPRVTTVSDTTKRNNMDFSIRIGNITPADAGTYYCIKFRKGSPDDVEFKSGAGTELSVRAKPSDKTHTCPPCPAPEAAGAPSVFLFPPKPKDTLMISRTPEVTCVVVDVSHEDPEVKFNWYVDGVEVHNAKTKPREEQYNSTYRVVSVLTVLHQDWLNGKEYKCKVSNKALPAPIEKTISKAKGQPREPQVYTLPPSREEMTKNQVSLTCLVKGFYPSDIAVEWESNGQPENNYKTTPPVLDSDGSFFLYSKLTVDKSRWQQGNVFSCSVMHEALHNHYTQKSLSLSPGK

Kd (human CD47 [12]): 4.94 nM
Kd (human CD47 [13]): 4.94 nM
B5: SIRP-α D1 variant polypeptide of SEQ ID NO: 71 (receptor)
chain: EEELQVIQPDKSVLVAAGETATLRCTATSLFPVGPIQWFRGAGPGRELIYNQRQGPFPRVTTVSDLTKRNNMDFSIRIGNITPADAGTYYCVKFRKGSPDDVEFKSGAGTELSVRAKPS
notes: engineered SIRP-α D1 domain

Kd (mouse CD47 [14]): 0.612 nM
Kd (human CD47 [15]): 1.65 nM
Kd (rat CD47): 4.59 nM
Kd (mouse CD47 [10]): 6.01 nM
Kd (human CD47 [11]): 6.79 nM
B6: SIRP-α D1 variant polypeptide of SEQ ID NO: 210 (receptor)
chain: EEELQIIQPDKSVLVAAGETATLRCTITSLFPVGPIQWFRGAGPGRELIYNQRDGPFPRVTTVSDTTKRNNMDFSIRIGAITPADAGTYYCVKFRKGIPDDVEFKSGAGTELSVRAKPS

Kd (human CD47 [12]): 7.41 nM
Kd (human CD47 [13]): 7.41 nM
B7: SIRP-α D1 variant polypeptide of SEQ ID NO: 76 (receptor)
chain: EEELQVIQPDKSVLVAAGETATLRCTATSLFPVGPIQWFRGAGPGRELIYNQREGPFPRVTTVSDLTKRNNMDFSIRIGNITPADAGTYYCVKFRKGSPDDVEFKSGAGTELSVRAKPS
notes: engineered SIRP-α D1 domain

Kd (human CD47 [12]): 0.448 nM
Kd (human CD47 [13]): 0.448 nM
B8: SIRP-α D1 variant polypeptide of SEQ ID NO: 73 (receptor)
chain: EEELQVIQPDKSVLVAAGETATLRCTITSLFPVGPIQWFRGAGPGRELIYNQREGPFPRVTTVSDTTKRNNMDFSIRIGNITPADAGTYYCVKFRKGSPDDVEFKSGAGTELSVRAKPS
notes: engineered SIRP-α D1 domain

Kd (human CD47 [12]): 0.114 nM
Kd (human CD47 [13]): 0.114 nM
B9: SIRP-α D1 variant polypeptide of SEQ ID NO: 77 (receptor)
chain: EEELQIIQPDKSVLVAAGETATLRCTITSLFPVGPIQWFRGAGPGRVLIYNQRQGPFPRVTTVSDTTKRNNMDFSIRIGNITPADAGTYYCIKFRKGSPDDVEFKSGAGTELSVRAKPS
notes: engineered SIRP-α D1 domain

Kd (human CD47 [12]): 1.33 nM
Kd (human CD47 [13]): 1.33 nM
B10: SIRP-α D1 variant polypeptide of SEQ ID NO: 75 (receptor)
chain: EEELQVIQPDKSVLVAAGETATLRCTITSLFPVGPIQWFRGAGPGRELIYNQREGPFPRVTTVSDLTKRNNMDFSIRIGNITPADAGTYYCVKFRKGSPDDVEFKSGAGTELSVRAKPS
notes: engineered SIRP-α D1 domain

Kd (human CD47 [12]): 0.276 nM
Kd (human CD47 [13]): 0.276 nM
B11: SIRP-α D1 variant polypeptide of SEQ ID NO: 74 (receptor)
chain: EEELQIIQPDKSVLVAAGETATLRCTITSLFPVGPIQWFRGAGPGRELIYNQREGPFPRVTTVSDTTKRNNMDFSIRIGNITPADAGTYYCVKFRKGSPDDVEFKSGAGTELSVRAKPS
notes: engineered SIRP-α D1 domain

Kd (mouse CD47 [14]): 0.371 nM
Kd (human CD47 [15]): 1.01 nM
Kd (rat CD47): 2.26 nM
Kd (mouse CD47 [10]): 4.11 nM
Kd (human CD47 [11]): 4.46 nM
B12: SIRP-α D1 variant polypeptide of SEQ ID NO: 209 (receptor)
chain: EEELQIIQPDKSVLVAAGETATLRCTITSLYPVGPIQWFRGAGPGRELIYNQRDGPFPRVTTVSDTTKRNNMDFSIRIGAITPADAGTYYCVKFRKGIPDDVEFKSGAGTELSVRAKPS

Kd (human CD47 [12]): 0.738 nM
Kd (human CD47 [13]): 0.738 nM
B13: SIRP-α D1 variant polypeptide of SEQ ID NO: 72 (receptor)
chain: EEELQIIQPDKSVLVAAGETATLRCTITSLFPVGPIQWFRGAGPGRELIYNQREGPFPRVTTVSDLTKRNNMDFSIRIGNITPADAGTYYCVKFRKGSPDDVEFKSGAGTELSVRAKPS
notes: engineered SIRP-α D1 domain

Kd (mouse CD47 [14]): 0.288 nM
Kd (human CD47 [15]): 0.967 nM
Kd (rat CD47): 1.49 nM
Kd (mouse CD47 [10]): 3.33 nM
Kd (human CD47 [11]): 5.26 nM
B14: SIRP-α D1 variant polypeptide of SEQ ID NO: 206 (receptor)
chain: EEELQIIQPDKSVLVAAGETATLRCTITSLRPVGPIQWFRGAGPGRELIYNQRDGPFPRVTTVSDTTKRNNMDFSIRIGAITPADAGTYYCVKFRKGIPDDVEFKSGAGTELSVRAKPS
